How the values were obtained:
[1] = test system: EcFadR (Escherichia coli); assay: SPR; conditions: SPR: 20 mM Tris-HCl pH 7.5, 200 mM NaCl, 0.005% Tween 20, 25 C, protein 31.25-1000 nM; EMSA: binding buffer composition not given, room temperature, 5 pmol …
[2] = test system: ValFadR (Vibrio alginolyticus); assay: SPR; conditions: SPR: 20 mM Tris-HCl pH 7.5, 200 mM NaCl, 0.005% Tween 20, 25 C, protein 31.25-1000 nM; EMSA: binding buffer composition not given, room temperature, 5 pmol …

fabA probe (SPR) gave a Kd [1] of 559 nM and a Kd [2] of 258 nM.

Source: article PMC5733061
